The source of these data is PMC9514091 (2022).

To fix the notation:
B1: host PD-1-Fc fusion protein (Fc fusion)
chain: LDAPSRPWSPLTFSPARLTVPEGANATFTCSFSSKPEHFVLNWYRMSPSNQTDKLAAFPEDRSQPGRDRRFHVTPLPGGRHFHMSIMAAQRNDSGVYFCGAIYLPPKTQINESRPAELT
B2: host PD-L1-Fc fusion protein (Fc fusion)
chain: FTITVPKDLYVVEYGSNVTLECRFPVDKQLNLLALVVYWEMEDKKIIQFVNGEEDLNVQHSSYNQRALLLKNQLPLGKAALQITDVKLQDAGIYCCLISYGGADYKRITLKVNASYRKINQTISVDPVTSEHELMCQAEGYPEAEVIWTSSDHRVLSGKTTITSSKREEKLFNVTSTLRINTTANEIFYCIFRRLGHEENSTAELV

For one experiment, the target named is De2-Fc fusion protein (Tursiops truncatus gammaherpesvirus 1). The experiment in a line: SPR. (In SPR one partner is held on a chip, and binding of the other changes the refractive index at the surface.)
Experiment [1] deals with B1. As to the kind of experiment: SPR.

For the molecule B1, the koff with De2-Fc fusion protein came to 0.000696 s⁻¹.
Turning to B2, in experiment [1], the koff was 0.000488 s⁻¹.

One may read the koff as a measure of how fast the partners let go of each other.
